From publication PMC8607333, “Real-time kinetic studies of Mycobacterium tuberculosis LexA–DNA interaction” (Bioscience Reports, 2021)
Where a chain is given by its changes, count along the chain named.

T1: LexA RKG/AAA (Mycobacterium tuberculosis, UniProt P9WHR7 1-236, R75A;K76A;G77A)
T1 sequence: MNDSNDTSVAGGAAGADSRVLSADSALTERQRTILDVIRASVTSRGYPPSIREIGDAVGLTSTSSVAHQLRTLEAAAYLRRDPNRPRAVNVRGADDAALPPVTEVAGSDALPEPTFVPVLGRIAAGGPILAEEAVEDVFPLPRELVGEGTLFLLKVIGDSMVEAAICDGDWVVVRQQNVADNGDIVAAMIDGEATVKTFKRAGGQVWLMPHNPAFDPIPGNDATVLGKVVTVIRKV

B1: Mycobacterium tuberculosis LexA, wild type (natural protein)
chain: T1 sequence with A75R, A76K, A77G
notes: also called Mtb LexA; WT Mtb LexA
B2: Mtb LexA RKG/AAA (natural protein)
chain: T1 sequence
notes: also called RKG/AAA mutant; RKG mutant
B3: dnaE2_44mer SOS box, biotinylated (dsDNA)
DNA 1: ACAACTGCGCTGTATCGAACAATTGTTCGATATACTGTGGAATG
DNA 2: CATTCCACAGTATATCGAACAATTGTTCGATACAGCGCAGTTGT
B4: dnaE2 44mer SOS box, non-biotinylated (dsDNA)
DNA 1: B3 DNA 1
DNA 2: B3 DNA 2
B5: dnaE2 44mer SOS box, 32P end-labeled (dsDNA)
DNA 1: B3 DNA 1
DNA 2: B3 DNA 2
B6: Mtb LexAΔ18aa (natural protein)
chain: MNDSNDTSVAGGAAGADSRVLSADSALTERQRTILDVIRASVTSRGYPPSIREIGDAVGLTSTSSVAHQLRTLERKGYLRRDPNRPRAVNVRGPEPTFVPVLGRIAAGGPILAEEAVEDVFPLPRELVGEGTLFLLKVIGDSMVEAAICDGDWVVVRQQNVADNGDIVAAMIDGEATVKTFKRAGGQVWLMPHNPAFDPIPGNDATVLGKVVTVIRKV
notes: also called ∆18aa variant; LexA18aaΔ
B7: Mtb LexAΔ24aa (domain or fragment)
chain: SALTERQRTILDVIRASVTSRGYPPSIREIGDAVGLTSTSSVAHQLRTLERKGYLRRDPNRPRAVNVRGADDAALPPVTEVAGSDALPEPTFVPVLGRIAAGGPILAEEAVEDVFPLPRELVGEGTLFLLKVIGDSMVEAAICDGDWVVVRQQNVADNGDIVAAMIDGEATVKTFKRAGGQVWLMPHNPAFDPIPGNDATVLGKVVTVIRKV
notes: also called ∆24aa variant; LexA∆24aa

Legend:
SEC = target: the molecule itself; assay: SEC
LexA RKG/AAA [1] = target: T1, LexA RKG/AAA; assay: BLI; pH 7.5; association up to 600 s; BLI: 10 mM HEPES pH 7.5, 50 mM NaCl, 25 C (pH 4 buffer not stated), 1:1 global fit; […]; details: protein: recombinant; tags: 6xHis; chain copies: 2; label: 5' biotin on strand 1; blunt
LexA RKG/AAA [2] = target: T1, LexA RKG/AAA; assay: ANS extrinsic fluorescence quench; ANS, 1:2 ratio; no significant quench; BLI: 10 mM HEPES pH 7.5, 50 mM NaCl, 25 C (pH 4 buffer not stated), 1:1 global fit; […]; details: protein: recombinant; tags: 6xHis; chain copies: 2; blunt
LexA RKG/AAA [3] = target: T1, LexA RKG/AAA; assay: EMSA; 128 nM protein; BLI: 10 mM HEPES pH 7.5, 50 mM NaCl, 25 C (pH 4 buffer not stated), 1:1 global fit; […]; details: protein: recombinant; tags: 6xHis; chain copies: 2; label: 32P end label, no biotin; blunt

Row | Binder | stoichiometry N (SEC) | also measured
1 | B1 | 2 | –
2 | B2 | 2 | –
3 | B3 | – | binding result (LexA RKG/AAA [1]): no binding
4 | B4 | – | binding result (LexA RKG/AAA [2]): no binding
5 | B5 | – | binding result (LexA RKG/AAA [3]): no binding
6 | B6 | 2 | –
7 | B7 | 2 | –
